# Publication PMC2568893, “Role of αBI5 and αBT162 residues in subunit interaction during oligomerization of αB-crystallin” (Molecular Vision, 2008)
# Where a chain is given by its changes, count along the chain named. Names may count otherwise.
# B1: αBI5C mutant of human αB-crystallin (natural protein, UniProt P02511 1-175, looked up)
# chain: MDIACHHPWIRRPFFPFHSPSRLFDQFFGEHLLESDLFPTSTSLSPFYLRPPSFLRAPSWFDTGLSEMRLEKDRFSVNLDVKHFSPEELKVKVLGDVIEVHGKHEERQDEHGFISREFHRKYRIPADVDPLTITSSLSSDGVLTVNGPRKQVSGPERTIPITREEKPAVTAAPKK
# modifications: FRET assays only: Alexa Fluor 488 or Alexa Fluor 555 C5-maleimide on the cysteine (thiol-labelled), or Alexa Fluor 350 carboxylic acid TFP ester on amines (amine-labelled, donor); unlabelled in the other experiments
# notes: human αB-crystallin (HspB5), 175 amino acids, with I5C; cDNA in pET-23d(+); Homo-oligomer, on average 35 subunits when reduced; also called αB5C
# B2: αBT162C mutant of human αB-crystallin (natural protein, UniProt P02511 1-175, looked up)
# chain: B1 chain with C5I, T162C
# modifications: FRET assays only: Alexa Fluor 488 or Alexa Fluor 555 C5-maleimide on the cysteine (thiol-labelled), or Alexa Fluor 488 carboxylic acid TFP ester on amines (amine-labelled, acceptor); unlabelled in the other experiments
# notes: human αB-crystallin (HspB5), 175 amino acids, with T162C; cDNA in pET-23d(+); Homo-oligomer, on average 35 subunits when reduced; also called αB162C
# Tests used:
# [1] = biological target: αBT162C mutant of human αB-crystallin (human) (UniProt P02511); assay: FRET or BRET; amine-labelled proteins: Alexa Fluor 350 TFP ester (donor) and Alexa Fluor 488 TFP ester (acceptor); 50 µg of each labelled protein mixed at 37 °C; subunit exchange rate from Ft/F0
# [2] = biological target: the molecule itself; assay: SEC-MALS; TSK G5000PWXL column, 100 µg protein, 50 mM phosphate, 150 mM NaCl, 0.02% sodium azide, pH 7.2, with the reducing agent TCEP; without it both Cys mutants formed larger oligomers
Binder,rate of subunit exchange [1] [s⁻¹],subunit interaction rate [1] [s⁻¹],stoichiometry N [2] [subunits]
B1,0.000655,6.5e-05,35
B2,,,35
